# From publication PMC12691818
# How the values were obtained:
# [1] = biological target: Xenopus laevis PP1c (XePP1c) (Xenopus laevis (endogenous in oocytes))
# [2] = biological target: PfPP1c (Plasmodium falciparum Protein Phosphatase 1 catalytic subunit, recombinant) (Plasmodium falciparum) (UniProt Q8ILV1)
# [3] = biological target: Xenopus laevis PP1c (XePP1c) (Xenopus laevis (endogenous in oocytes)); remark: listed apart in the source
# [4] = biological target: Xenopus laevis PP1c (XePP1c) (Xenopus laevis (endogenous in oocytes)); remark: listed apart in the source
substance,measurement,setting,value
PbRpt3-KATA (HA-tagged PbRpt3 mutated 200-KVTF-203 to 200-KATA-203) (natural protein),percentage of GVBD of progesterone-treated Xenopus oocytes microinjected with PbRpt3-KATA cRNA (control 80%),[1],26.6 % GVBD
"PfI2 (inhibitor of PP1c, Plasmodium falciparum) (natural protein)",PfPP1c phosphatase activity on pNPP; 37.5 to 600 pmol PfI2 with 1 µg PfPP1c; value at 600 pmol,[2],60%
PbRpt3-KATA/RKAEA (HA-tagged PbRpt3 with both RVxF motifs mutated) (natural protein),percentage of GVBD of progesterone-treated Xenopus oocytes microinjected with PbRpt3-KATA/RKAEA cRNA (control 80%),[1],76 % GVBD
"PbRpt3 ATP-binding site mutant (HA-tagged PbRpt3 substituted for alanines in positions K188, D241, N288 and Q356) (natural protein)","percentage of GVBD of progesterone-treated Xenopus oocytes microinjected with PbRpt3 cRNA mutated for the ATP-binding sites (PbRpt3 1.7%, PG-treated oocytes 80.8%)",[3],39.2 % GVBD
HA-tagged PbRpt3 protein (full-size 45 kDa native PbRpt3 translated from microinjected cRNA in Xenopus oocytes) (from UniProt A0A509AIQ8 1-395) (natural protein),percentage of GVBD of progesterone-treated Xenopus oocytes microinjected with PbRpt3 cRNA (PG alone 86.7%),[4],1.7 % GVBD
same,percentage of GVBD of progesterone-treated Xenopus oocytes microinjected with PbRpt3 cRNA (control 80%),[1],1.7 % GVBD
PbRpt3-RKAEA (HA-tagged PbRpt3 mutated 305-RKIEF-309 to 305-RKAEA-309) (natural protein),percentage of GVBD of progesterone-treated Xenopus oocytes microinjected with PbRpt3-RKAEA cRNA (control 80%),[1],23.3 % GVBD
"PbRpt3-30 kDa (recombinant truncated PbRpt3, aa 131-395) (domain or fragment)",PfPP1c phosphatase activity on pNPP; 37.5 to 600 pmol PbRpt3-30 kDa preincubated with 1 µg PfPP1c; value at 600 pmol (% PP1c activity),[2],> 400
